The text below walks through data of patent publication US20220259593A1, “CONTROL OF MAMMALIAN GENE DOSAGE USING CRISPR” (The Regents of the University of California, priority 2019, published 2022).

Where a chain is given by its changes, count along the chain named.

The data set has as its system K562 CRISPRi cells. Nature of the data set: Constant region variant library pooled growth screen, K562. Conditions: sgRNA constant region variants; activity relative to the original, un-modified constant region cr995. It is filed as cell-based, human. An outline of the steps:
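Pooled library transduced into K562 CRISPRi cells in duplicate, puromycin-selected, grown at >2000× coverage and sampled after 4 to 8 days. Phenotypes per targeting sequence:constant region pair were normalized to the unmodified-scaffold pairing to give relative activity.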

B1: cr833 (nucleic acid)
guide: GTTTAAGAGCTAAGCTGGAAACAGCATCGCAACTTTAAATAAGGCTAGTCCGTTATCAACTTGAAAAAGTCGCACCGAGTCGGTGCT
modifications: listed as DNA, chemistry not fully specified
B1: the Mean relative activity is 0.004215.

B2: cr143 (nucleic acid)
guide: B1 guide with C28A, G44A, C50T, C71G
modifications: listed as DNA, chemistry not fully specified
B2 showed a Mean relative activity of 0.001524.

B3: cr874 (nucleic acid)
guide: B1 guide with C28A, C33G, T34G, G43T, C51A, C71G
modifications: listed as DNA, chemistry not fully specified
As for B3, the Mean relative activity came out at 0.002144.

B4: cr660 (nucleic acid)
guide: B1 guide with C28A, C33G, G43T, C71G
modifications: listed as DNA, chemistry not fully specified
As to B4, the Mean relative activity worked out at 0.004102.

B5: cr303 (nucleic acid)
guide: B1 guide with C28A, A47T, C71T
modifications: listed as DNA, chemistry not fully specified
In the case of B5, the Mean relative activity is given as 0.003573.

B6: cr482 (nucleic acid)
guide: B1 guide with C28A, C33G, A47T, G52C, C71G
modifications: listed as DNA, chemistry not fully specified
B6 yielded a Mean relative activity of 0.003006.

B7: cr070 (nucleic acid)
guide: B1 guide with G7C, A8G, C28A, C33G, C71G
modifications: listed as DNA, chemistry not fully specified
B7 registered a Mean relative activity of 1.03.

B8: cr930 (nucleic acid)
guide: B1 guide with C28A, A32T, C33G, T49G, C57T, C71G
modifications: listed as DNA, chemistry not fully specified
The molecule B8 had a Mean relative activity of 0.001721.

B9: cr608 (nucleic acid)
guide: B1 guide with C28A, C45G, G48C, C71G
modifications: listed as DNA, chemistry not fully specified
Take B9: the Mean relative activity is listed as 0.002568.

B10: cr149 (nucleic acid)
guide: B1 guide with C28A, C33G, G43C, C51G, C71G, G72T, C86A
modifications: listed as DNA, chemistry not fully specified
B10 registered a Mean relative activity of 0.00167.

B11: cr674 (nucleic acid)
guide: B1 guide with C28A, C33G, G43C, C51G, A59T, T70A, C71G
modifications: listed as DNA, chemistry not fully specified
B11 had a Mean relative activity of 0.00279.

B12: cr355 (nucleic acid)
guide: B1 guide with C28A, C33G, T34G, T62A, A67T, C71G
modifications: listed as DNA, chemistry not fully specified
In the case of B12, the Mean relative activity is 0.001771.

B13: cr572 (nucleic acid)
guide: B1 guide with C28A, C33G, G43C, G44C, C45G, T46A, G48C, C51G, C71G
modifications: listed as DNA, chemistry not fully specified
Molecule B13 registered a Mean relative activity of 0.002782.

B14: cr049 (nucleic acid)
guide: B1 guide with T3G, A5T, C28A, C33G, C71G
modifications: listed as DNA, chemistry not fully specified
Consider B14, for which the Mean relative activity came out at 0.003203.

B15: cr735 (nucleic acid)
guide: B1 guide with C28A
modifications: listed as DNA, chemistry not fully specified
Molecule B15 came in with a Mean relative activity of 0.002596.

B16: cr981 (nucleic acid)
guide: B1 guide with C28A, C33G, G43C, C51G, T62G, A67C, C71G
modifications: listed as DNA, chemistry not fully specified
B16 returned a Mean relative activity of 0.003266.

B17: cr975 (nucleic acid)
guide: B1 guide with C28A, A42T, C71G
modifications: listed as DNA, chemistry not fully specified
For the molecule B17, the Mean relative activity turned out to be 0.002152.

B18: cr129 (nucleic acid)
guide: B1 guide with C28A, C33G, T61G, A65G, A68C, C71G
modifications: listed as DNA, chemistry not fully specified
For B18, the Mean relative activity is 1.029.

B19: cr381 (nucleic acid)
guide: B1 guide with C28A, C33G, A41T, A47C, A65C, C71G
modifications: listed as DNA, chemistry not fully specified
The molecule B19 came in with a Mean relative activity of 0.003196.

B20: cr903 (nucleic acid)
guide: B1 guide with C28A, C33G, G52C, C71G, G79A
modifications: listed as DNA, chemistry not fully specified
Regarding B20, the Mean relative activity turned out to be 0.00222.

B21: cr657 (nucleic acid)
guide: B1 guide with C28A, C33G, C50G, C71G
modifications: listed as DNA, chemistry not fully specified
As to B21, the Mean relative activity is reported as 0.002604.

B22: cr271 (nucleic acid)
guide: B1 guide with C28A, C33G, C71G, C73T, A74C, T84G, G85A
modifications: listed as DNA, chemistry not fully specified
B22 showed a Mean relative activity of 1.03.

B23: cr245 (nucleic acid)
guide: B1 guide with C28A, C33G, T34G, G44A, C50T, C71G
modifications: listed as DNA, chemistry not fully specified
In turn, B23 returned a Mean relative activity of 0.00372.

B24: cr068 (nucleic acid)
guide: B1 guide with T4A, A5G, C28A, C33G, C71G
modifications: listed as DNA, chemistry not fully specified
In turn, B24 registered a Mean relative activity of 0.002959.

B25: cr536 (nucleic acid)
guide: B1 guide with C28A, C45A, G48T, C71G
modifications: listed as DNA, chemistry not fully specified
As to B25, the Mean relative activity came to 0.003951.

B26: cr469 (nucleic acid)
guide: B1 guide with C28A, C33G, G52C, C71G
modifications: listed as DNA, chemistry not fully specified
In turn, B26 gave a Mean relative activity of 0.003211.

B27: cr786 (nucleic acid)
guide: B1 guide with C28A, C33G, A41T, A55G, C57G, C71G
modifications: listed as DNA, chemistry not fully specified
Molecule B27 had a Mean relative activity of 0.001749.

B28: cr225 (nucleic acid)
guide: B1 guide with C28A, C33G, G43T, G48T, C71G
modifications: listed as DNA, chemistry not fully specified
In the case of B28, the Mean relative activity is recorded as 0.002658.

B29: cr810 (nucleic acid)
guide: B1 guide with C28A, C33G, T34G, C71G, G77C, C81G
modifications: listed as DNA, chemistry not fully specified
The molecule B29 yielded a Mean relative activity of 0.002026.
